Results taken from patent US20120171115A1 (AVIPEP, published 2012).

Biological target: recombinant HER2 ectodomain (human, UniProt P04626 23-652)
Assay: column shift assay: gel filtration monitored at A280, diabody pre-incubated with recombinant HER2 ectodomain
Protocol: Binding activity to soluble antigen was established by a column shift. […] In the column shift assay, at least two times mole excess of soluble antigen to diabody was incubated for 1 hr at ambient temperature. Binding activity was determined by comparing the resulting diabody/antigen complex peak to the free diabody peak. The elution profiles of the diabody or diabody/antigen complex was monitored either directly though absorbance at 280 nm or, in cases where the diabody was Europium labelled, elution fractions were measured in a Victor time-resolved fluorometer using the Europium mode in the Victor multilabel program wizard.

B1: AVP07-17 anti-Her2 diabody (other)
chain: QVQLVQSGAEVKKPGESLKISCKGSGYSFTSYWIAWVRQMPGKGLEYMGLIYPGDSDTKYSPSFQGQVTISVDKSVSTAYLQWSSLKPSDSAVYFCARHDVGYCSSSNCAKWPEYFQHWGQGTLVTVSSGGGGSQSVLTQPPSVSAAPGQKVTISCSGSSSNIGNNYVSWYQQLPGTVPKLLIYGHTNRPAGVPDRFSGSKSGTSASLAISGFRSEDEADYYCAAWDDSLSGWVFGGGTKLTVLGAAAEQKLISEEDLNGAAHHHHHH
notes: Diabody: homodimer of VH-Gly4Ser-VL chains from a human anti-HER2 mAb, with a C-terminal His6 tag from cloning; also called AVP07-17 Avibody
  binding result: binds
